Assay results: patent US12134788B2, “Engineered prephenate dehydrogenases and arogenate dehydrogenases and methods of using the same” (Wisconsin Alumni Research Foundation, priority 2017, dated 2024)
Numbering of substitutions follows the chain as printed. Numbers in names are those of the source.

How the values were obtained:
[1] = substrate: N[C@@H](CC1(C(=O)O)C=CC(O)C=C1)C(=O)O; test: ADH and PDH assay: steady-state kinetics and Tyr inhibition, GmncADH D218N; format: biochemical, Glycine max (soybean); conditions: other: 0.5 mM NADP^+, pH 7.6, 37° C.
Experimental: (§1) Kinetic parameters of purified recombinant proteins were determined from assays conducted at varying arogenate (19.5 μM-5 mM) and prephenate concentration (23.4 μM-6 mM). Standard assay conditions were 25 mM HEPES pH 7.6, 50 mM KCl and 10% (v/v) ethylene glycol, and 0.5 mM NADP^+ with varied substrate, concentrations. Reactions were initiated by addition of enzyme and incubated at 37° C. monitored every 10-15 seconds at […] using a microplate reader (Tecan Genios). Kinetic parameters were determined by fitting initial velocity data to the Michaelis-Menten equation using the Origin software (OriginLab).
(§2) Arogenate was prepared by enzymatic conversion of prephenate (Sigma-Aldrich) as previously reported^56. For Tyr inhibition assays, Tyr was dissolved in a slightly basic solution (0.025 N NaOH) due to solubility issues, thus the concentration of lysis buffer was increased to 500 mM HEPES final concentration to buffer against the changes by addition of Tyr in the reaction. Reactions containing varying amounts of Tyr (10 μM-8 mM) with 0.5 mM NADP^+ and either 1 mM arogenate or 0.8 mM prephenate were monitored as above.

[2] = substrate: O=C(O)C(=O)CC1(C(=O)O)C=CC(O)C=C1; test: as above; format: biochemical, Glycine max (soybean); conditions: other: 0.5 mM NADP^+, pH 7.6, 37° C.
Experimental: as §1, §2

[3] = PDH assay: steady-state kinetics of purified recombinant plant enzymes with prephenate; format: biochemical; conditions: prephenate versus arogenate, NADP+ cofactor
From the text: As used herein, a polypeptide may “have greater arogenate dehydrogenase activity than prephenate dehydrogenase activity” or “have greater prephenate dehydrogenase activity than arogenate dehydrogenase activity” when the steady-state kinetic parameters (kcat/Km (mM^−1s^−1)) for arogenate dehydrogenase activity are greater than the steady-state parameters (kcat/Km (mM^−1s^−1)) for prephenate dehydrogenase activity or when the steady-state kinetic parameters (kcat/Km (mM^−1s^−1)) for prephenate dehydrogenase activity are greater than the steady-state parameters (kcat/Km (mM^−1s^−1)) for arogenate dehydrogenase activity. Steady-state kinetic parameters may be measured using techniques similar to those described by the inventors in the Examples. Briefly, kinetic parameters of purified polypeptides can be determined from assays conducted at varying arogenate and prephenate concentrations. Standard assay conditions include 25 mM HEPES pH 7.6, 50 mM KCl and 10% (v/v) ethylene glycol, and 0.5 mM NADP^+ with varied substrate, concentrations. Reactions can be initiated by the addition of the polypeptide and incubated at 37° C. monitored every 10-15 seconds at A340nm using a microplate reader. Kinetic parameters may be determined by fitting initial velocity data to the Michaelis-Menten equation using the Origin software.
as §1

[4] = Tyr inhibition assay of ADH activity (arogenate substrate); format: biochemical; conditions: Tyr up to 8 mM
Experimental: as §2

[5] = substrate: N[C@@H](CC1(C(=O)O)C=CC(O)C=C1)C(=O)O; test: ADH and PDH assay: steady-state kinetics and Tyr inhibition, MtncADH D220C; format: biochemical, Medicago truncatula; conditions: other: 0.5 mM NADP^+, pH 7.6, 37° C.
Experimental: as §1, §2

[6] = substrate: O=C(O)C(=O)CC1(C(=O)O)C=CC(O)C=C1; test: as above; format: biochemical, Medicago truncatula; conditions: other: 0.5 mM NADP^+, pH 7.6, 37° C.
Experimental: as §1, §2

[7] = substrate: N[C@@H](CC1(C(=O)O)C=CC(O)C=C1)C(=O)O; test: ADH and PDH assay: steady-state kinetics and Tyr inhibition, MtPDH C220D; format: biochemical, Medicago truncatula; conditions: other: 0.5 mM NADP^+, pH 7.6, 37° C.
Experimental: as §1, §2

[8] = substrate: O=C(O)C(=O)CC1(C(=O)O)C=CC(O)C=C1; test: as above; format: biochemical, Medicago truncatula; conditions: other: 0.5 mM NADP^+, pH 7.6, 37° C.
Experimental: as §1, §2

[9] = substrate: N[C@@H](CC1(C(=O)O)C=CC(O)C=C1)C(=O)O; test: ADH and PDH assay: steady-state kinetics and Tyr inhibition, GmPDH1 N222D; format: biochemical, Glycine max (soybean); conditions: other: 0.5 mM NADP^+, pH 7.6, 37° C.
Experimental: as §1, §2

[10] = substrate: O=C(O)C(=O)CC1(C(=O)O)C=CC(O)C=C1; test: as above; format: biochemical, Glycine max (soybean); conditions: other: 0.5 mM NADP^+, pH 7.6, 37° C.
Experimental: as §1, §2

[11] = substrate: N[C@@H](CC1(C(=O)O)C=CC(O)C=C1)C(=O)O; test: ADH and PDH assay: steady-state kinetics and Tyr inhibition, GmPDH1 M219T; format: biochemical, Glycine max (soybean); conditions: other: 0.5 mM NADP^+, pH 7.6, 37° C.
Experimental: as §1, §2

[12] = substrate: O=C(O)C(=O)CC1(C(=O)O)C=CC(O)C=C1; test: as above; format: biochemical, Glycine max (soybean); conditions: other: 0.5 mM NADP^+, pH 7.6, 37° C.
Experimental: as §1, §2

[13] = substrate: N[C@@H](CC1(C(=O)O)C=CC(O)C=C1)C(=O)O; test: ADH and PDH assay: steady-state kinetics and Tyr inhibition, GmPDH1 M219T/N222D; format: biochemical, Glycine max (soybean); conditions: other: 0.5 mM NADP^+, pH 7.6, 37° C.
Experimental: as §1, §2

[14] = substrate: O=C(O)C(=O)CC1(C(=O)O)C=CC(O)C=C1; test: as above; format: biochemical, Glycine max (soybean); conditions: other: 0.5 mM NADP^+, pH 7.6, 37° C.
Experimental: as §1, §2

[15] = substrate: O=C(O)C(=O)CC1(C(=O)O)C=CC(O)C=C1; test: ADH and PDH assay: steady-state kinetics and Tyr inhibition, GmPDH1 N222A; format: biochemical, Glycine max (soybean); conditions: other: 0.5 mM NADP^+, pH 7.6, 37° C.
Experimental: as §1, §2

[16] = substrate: N[C@@H](CC1(C(=O)O)C=CC(O)C=C1)C(=O)O; test: ADH and PDH assay: steady-state kinetics and Tyr inhibition, SolyncADH D224N; format: biochemical, Solanum lycopersicum (tomato); conditions: other: 0.5 mM NADP^+, pH 7.6, 37° C.
Experimental: as §1, §2

[17] = substrate: O=C(O)C(=O)CC1(C(=O)O)C=CC(O)C=C1; test: as above; format: biochemical, Solanum lycopersicum (tomato); conditions: other: 0.5 mM NADP^+, pH 7.6, 37° C.
Experimental: as §1, §2

B1: Glycine max GmncADH variant D218N (Glycine max; D218N) (protein)
chain: MSTWSLKIGVVGFGSFGQFLAKTMIKQGHTLRATSRTDYSLLCLPMGIQFFRDVAAFLEADNDVILVCTSILSLSEVLSSMPLTCLKRSTLFVDVLSVKEHPRNLLIKVLPEESDILCTHPMFGPDSGKDGWQDLTFVYDKVRIRDEAICSSFLHIFASEGCRMLQMSCEEHDKIAAKSQFITHTIGRTLAEMDIKSTPIDTKGFHSLVQLKDTTIRNSFDLYSGLFLHNRFAVQELENLEHALHKVKEMLVQRKSEELGLEKTEC
notes: D218N by site-directed mutagenesis
Work on B1 yielded a Km [1] of 740 ± 140 µM, a kcat [1] of 8.6 ± 0.2 s⁻¹ and a kcat/Km [1] of 11600 M⁻¹ s⁻¹. The Km [2] was 1980 ± 50 µM, the kcat [2] was 11.5 ± 0.5 s⁻¹ and the kcat/Km [2] was 5810 M⁻¹ s⁻¹.

B2: GmncADH: noncanonical arogenate dehydrogenase from soybean, wild-type (protein)
chain: B1 chain with N218D
modifications: GmncADH WT
notes: noncanonical arogenate dehydrogenase from soybean, wild-type
For B2, the “substrate specificity: PDH versus ADH activity (in words)” value [3] was “only displayed activity with arogenate” and the “feedback inhibition by Tyr (in words)” value [4] was “sensitive to Tyr but with IC50 values in the mM range”.

B3: Medicago truncatula MtncADH variant D220C, SEQ ID NO: 10 (Medicago truncatula; D220C) (protein)
chain: MSNSPSLKIGIVGFGSFGQFLAKTMIKQGHTLTATSRTDYSHTCLQLGIQFFRDVGTFIEANNDVILICTSIMSFTKVLSSMPLACLKKPTTLFVDVLSVKEHPREVLLRVLPEESDILCTHPMFGPESGKNGWKDLNFMYDKVRIHDEATCSNFLHIFASEGCKMLQMSCEEHDKIAAKSQFITHTIGRTLAEMDIESTPIDTKGFQTLTQLKNTTMRCSFDLYSGLFVHNRFAKQELENLQRALDRVKEMLVQRMREELGPEKD
notes: D220C by site-directed mutagenesis
B3 showed a Km [5] of 870 ± 30 µM, a kcat [5] of 7 ± 0.8 s⁻¹ and a kcat/Km [5] of 8050 M⁻¹ s⁻¹. For the same molecule, the Km [6] was 740 ± 30 µM, the kcat [6] was 10.1 ± 0.5 s⁻¹ and the kcat/Km [6] was 13600 M⁻¹ s⁻¹.

B4: MtncADH D220C: site-directed mutant of M. truncatula noncanonical ADH, Asp220 to Cys (protein)
chain: B3 chain
modifications: Synthetic: MtncADH D220C
notes: site-directed mutant of M. truncatula noncanonical ADH, Asp220 to Cys
With B4 the “substrate specificity: PDH versus ADH activity (in words)” value [3] was “reduced ADH activity and enhanced PDH activity” and the “feedback inhibition by Tyr (in words)” value [4] was “significantly less sensitive to Tyr inhibition than the respective wild-type enzymes”.

B5: Medicago truncatula MtPDH variant C220D, SEQ ID NO: 1 (Medicago truncatula; C220D) (protein)
chain: MSSSSKSLKIGIVGFGTFGQFLANTMIKQGHTLTATSRTDYSQLCDQMGIHFFRDITAFLDADMDVILLCTSISSLSEVVGSMPLACLKRPTLFVDVLSVKEHPKNLLLKVLPEESDILCTHPMFGPVSGKNGWQNLTFMFDKVRIKDEVTCSKFLQIFASEGCKMVEMSCEEHDKAAAKSQFITHTIGRTLAEMDIKSTPIDTKGFQTLVELKKPVMGDSFDLYSGLFVYNRFARQELENLEHALHKVKEMLVQRIDEGQNPERTES
With B5 the Km [7] was 270 ± 10 µM, the kcat [7] was 46.8 ± 4.2 s⁻¹ and the kcat/Km [7] was 173000 M⁻¹ s⁻¹. The Km [8] was 1530 ± 90 µM, the kcat [8] was 0.5 ± 0.1 s⁻¹ and the kcat/Km [8] was 327 M⁻¹ s⁻¹.

B6: Glycine max GmPDH1 variant N222D, SEQ ID NO: 2 (Glycine max; N222D) (protein)
chain: MSTSSSSQSLKIGIVGFGNFGQFLAKTMIKQGHTLTATSRSDYSELCLQMGIHFFRDVSAFLTADIDVIVLCTSILSLSEVVGSMPLTSLKRPTLFVDVLSVKEHPRELLLRELPEDSDILCTHPMFGPQTAKNGWTDHTFMYDKVRIRDEVICSNFIQIFATEGCKMVQMSCEEHDRAAAKSQFITHTIGRTLGEMDIQSTPIDTKGFETLVKLKETMMRDSFDLYSGLFVYNRFARQELENLEHALHKVKETLMIQRTNGEQGHKRTES
With B6 the Km [9] was 530 ± 180 µM, the kcat [9] was 27.8 ± 3.5 s⁻¹ and the kcat/Km [9] was 52400 M⁻¹ s⁻¹. It also gave a Km [10] of 7580 ± 1130 µM, a kcat [10] of 19.1 ± 1.4 s⁻¹ and a kcat/Km [10] of 2520 M⁻¹ s⁻¹.

B7: Glycine max GmPDH1 variant M219T (Glycine max; M219T) (protein)
chain: B6 chain with M219T, D222N
In the case of B7, the Km [11] is reported as 1550 ± 140 µM, the kcat [11] is reported as 4.6 ± 0.3 s⁻¹ and the kcat/Km [11] is reported as 2970 M⁻¹ s⁻¹. The Km [12] was 100 ± 20 µM, the kcat [12] was 30.3 ± 0.8 s⁻¹ and the kcat/Km [12] was 303000 M⁻¹ s⁻¹.

B8: Glycine max GmPDH1 variant M219T/N222D (Glycine max; M219T/N222D) (protein)
chain: B6 chain with M219T
B8 showed a Km [13] of 630 ± 180 µM, a kcat [13] of 29 ± 4.4 s⁻¹ and a kcat/Km [13] of 46000 M⁻¹ s⁻¹. For the same molecule, the Km [14] was 1180 ± 120 µM, the kcat [14] was 2.5 ± 0.3 s⁻¹ and the kcat/Km [14] was 2120 M⁻¹ s⁻¹.

B9: Glycine max GmPDH1 variant N222A (Glycine max; N222A) (protein)
chain: B6 chain with D222A
B9 showed a Km [15] of 190 ± 40 µM, a kcat [15] of 6.6 ± 0.3 s⁻¹ and a kcat/Km [15] of 34700 M⁻¹ s⁻¹.

B10: Solanum lycopersicum SolyncADH variant D224N (Solanum lycopersicum; D224N) (protein)
chain: MSSSSSCQPKTLRIGIIGFGPFAQFLAKTMMKQGHCIHVTSRSDYSELCTDLGILFFRDMGAFLESDNEVIMISTSILSLSQVVESIPFNCLKRPTLFVDVLSVKEHPKDVLLRMMPRECDLLCTHPMFGPESGKDGWEDLTFMYDMVRIRDQPLCSSFLHIFSSEGCKMLEMTCEKHDRLAAQSQFLTHTIGRILSEMEVEPTPIDTKGFQKLVQVKESSVKNSFDLFSGLFIHNRFARQQMKNLEVALEKTKEKLQERSKELQDPIISKF
notes: D224N by site-directed mutagenesis
Work on B10 yielded a Km [16] of 1340 ± 480 µM, a kcat [16] of 11.7 ± 0.2 s⁻¹ and a kcat/Km [16] of 8730 M⁻¹ s⁻¹. For the same molecule, the Km [17] was 2310 ± 100 µM, the kcat [17] was 2.4 ± 1 s⁻¹ and the kcat/Km [17] was 1040 M⁻¹ s⁻¹.
